Measurements taken from the supplement of paper PMC10567573.

B1: GMCL1 (parent)
chain: RPDTGDDAAGHGFCYCAGSHKRKR
B2: CPXM2 (parent)
chain: TASTKNCMVGYDMGATRCDFTLSK

Variants of: B1
Experiment: protein stability index of a GFP-peptide fusion (GPS, HEK-293T) (PSI 1-6); higher = more stable
Conditions: c terminus: a fixed tail appended
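Note: lentivirally expressed fusions sorted by FACS into six bins by GFP to DsRed ratio, PSI derived from sequencing read proportions per bin multiplied by bin number.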

Protein stability index of substitutions, site by site:
R1: F 1.76; G 3.97; C 2.99; A 2.89; H 3.08; E 2.84; D 2.92

Variants of: B2
Experiment: as above
Conditions: c terminus: a fixed tail appended

Protein stability index of substitutions, site by site:
C18: L 2.4; P 3.2; A 2.04; R 2.68; Y 2.46; N 2.43; D 2.98; K 3.57; S 2.27; Q 1.75; E 3.53; T 2.66; V 2.19; G 1.87; F 2.42; M 2.59; I 2.84; H 2.8; W 3.08
S23: Y 2.01; D 2.55; M 2; E 2.45; L 2.67; W 1.86; T 1.94; K 2.78; N 2.6; C 1.46; H 2.2; P 2.59; Q 2.26; R 3.34; A 3.47; V 2.3; G 2.45; I 1.89; F 1.55
R17: L 3.53; F 2.81; T 3.38; M 3.07; Y 2.63; C 3.49; V 3.7; I 3.2; N 3.32; K 3.28; A 3.87; D 3.96; E 3.79; P 3.57; Q 3.67; W 2.13; G 3.72; S 3.31; H 2.72
T21: L 2.52; F 2.11; A 2.37; H 3.16; E 3.16; K 3.35; I 2.02; G 2.48; C 1.57; M 1.95; R 2.89; V 2.48; N 3.06; P 2.71; W 1.67; D 2.52; S 2.21; Y 1.91; Q 3.15
L22: S 2.41; Q 2.96; R 2.35; T 3.23; H 3.06; M 2.39; K 3.36; G 3.48; Y 2.26; W 1.74; F 2.12; P 2.48; V 2.52; C 2.42; A 2.64; E 3.07; D 3.58; I 1.88; N 3.41
K24: S 2.22; E 2.62; C 2.38; T 1.62; L 1.52; G 1.78; D 2.37; M 2.85; N 2.03; I 3.76; V 2.78; R 1.56; P 2.35; F 4.01; A 2.43; H 2.87; Y 2.73; Q 1.82
D19: A 2.9; M 1.82; S 2.08; V 1.78; N 3.07; Q 1.84; T 2.36; H 2.59; W 2.24; Y 2.36; G 1.94; R 2.9; K 2.67; I 1.94; F 1.75; E 2.18; P 2.77; C 1.91; L 2.54
T16: W 2.39; N 2.75; Q 2.86; V 2.66; P 2.62; Y 2.17; M 2.28; S 2.81; R 3.06
F20: C 2.52; K 3.67; Y 2.13; N 2.98; R 3.63; S 2.99; E 4.26; D 3.85; P 4.12; L 2.42; A 2.51; W 2.28; G 3.5; M 2.78; H 3.5; I 2.69; Q 3.05; T 3.88; V 2.81
